Assay results as given in ChEMBL document CHEMBL1629679, “Extended-spectrum cephalosporinases in Pseudomonas aeruginosa” (2009).

Key:
[1] = substrate: C[C@@H](O)[C@H]1C(=O)N2C(C(=O)O)=C(SCCNC=N)C[C@H]12; assay: (§1) Ratio of Kcat to Km for Pseudomonas aeruginosa PDC-5 by spectrophotometer
[2] = substrate: CC(C)(O/N=C(\C(=O)N[C@@H]1C(=O)N2C(C(=O)[O-])=C(C[n+]3ccccc3)CS[C@H]12)c1csc(N)n1)C(=O)O; assay: as §1
[3] = substrate: CC1(C)S[C@@H]2[C@H](NC(=O)Cc3ccccc3)C(=O)N2[C@H]1C(=O)O; assay: as §1
[4] = substrate: CCN1CCN(C(=O)N[C@@H](C(=O)N[C@@H]2C(=O)N3[C@@H]2SC(C)(C)[C@@H]3C(=O)O)c2ccccc2)C(=O)C1=O; assay: as §1
[5] = substrate: CO/N=C(\C(=O)N[C@@H]1C(=O)N2C(C(=O)O)=C(COC(C)=O)CS[C@H]12)c1csc(N)n1; assay: as §1
[6] = substrate: C[C@@H](O)[C@H]1C(=O)N2C(C(=O)O)=C(SCCNC=N)C[C@H]12; assay: (§2) Activity at Pseudomonas aeruginosa PDC-5 by spectrophotometer
[7] = substrate: CC(C)(O/N=C(\C(=O)N[C@@H]1C(=O)N2C(C(=O)[O-])=C(C[n+]3ccccc3)CS[C@H]12)c1csc(N)n1)C(=O)O; assay: as §2
[8] = substrate: CC1(C)S[C@@H]2[C@H](NC(=O)Cc3ccccc3)C(=O)N2[C@H]1C(=O)O; assay: as §2
[9] = substrate: CCN1CCN(C(=O)N[C@@H](C(=O)N[C@@H]2C(=O)N3[C@@H]2SC(C)(C)[C@@H]3C(=O)O)c2ccccc2)C(=O)C1=O; assay: as §2
[10] = substrate: CO/N=C(\C(=O)N[C@@H]1C(=O)N2C(C(=O)[O-])=C(C[N+]3(C)CCCC3)CS[C@H]12)c1csc(N)n1; assay: as §2
[11] = substrate: CO/N=C(\C(=O)N[C@@H]1C(=O)N2C(C(=O)O)=C(COC(C)=O)CS[C@H]12)c1csc(N)n1; assay: as §2
[12] = substrate: C[C@@H](O)[C@H]1C(=O)N2C(C(=O)O)=C(SCCNC=N)C[C@H]12; assay: (§3) Activity at Pseudomonas aeruginosa PDC-1 by spectrophotometer
[13] = substrate: CC(C)(O/N=C(\C(=O)N[C@@H]1C(=O)N2C(C(=O)[O-])=C(C[n+]3ccccc3)CS[C@H]12)c1csc(N)n1)C(=O)O; assay: as §3
[14] = substrate: CC1(C)S[C@@H]2[C@H](NC(=O)Cc3ccccc3)C(=O)N2[C@H]1C(=O)O; assay: as §3
[15] = substrate: CCN1CCN(C(=O)N[C@@H](C(=O)N[C@@H]2C(=O)N3[C@@H]2SC(C)(C)[C@@H]3C(=O)O)c2ccccc2)C(=O)C1=O; assay: as §3
[16] = substrate: CO/N=C(\C(=O)N[C@@H]1C(=O)N2C(C(=O)[O-])=C(C[N+]3(C)CCCC3)CS[C@H]12)c1csc(N)n1; assay: as §3
[17] = substrate: CO/N=C(\C(=O)N[C@@H]1C(=O)N2C(C(=O)O)=C(COC(C)=O)CS[C@H]12)c1csc(N)n1; assay: as §3
[18] = substrate: C[C@@H](O)[C@H]1C(=O)N2C(C(=O)O)=C(SCCNC=N)C[C@H]12; assay: (§4) Ratio of Kcat to Km for Pseudomonas aeruginosa PDC-1 by spectrophotometer
[19] = substrate: CC(C)(O/N=C(\C(=O)N[C@@H]1C(=O)N2C(C(=O)[O-])=C(C[n+]3ccccc3)CS[C@H]12)c1csc(N)n1)C(=O)O; assay: as §4
[20] = substrate: CC1(C)S[C@@H]2[C@H](NC(=O)Cc3ccccc3)C(=O)N2[C@H]1C(=O)O; assay: as §4
[21] = substrate: CCN1CCN(C(=O)N[C@@H](C(=O)N[C@@H]2C(=O)N3[C@@H]2SC(C)(C)[C@@H]3C(=O)O)c2ccccc2)C(=O)C1=O; assay: as §4
[22] = substrate: CO/N=C(\C(=O)N[C@@H]1C(=O)N2C(C(=O)[O-])=C(C[N+]3(C)CCCC3)CS[C@H]12)c1csc(N)n1; assay: as §4
[23] = substrate: CO/N=C(\C(=O)N[C@@H]1C(=O)N2C(C(=O)O)=C(COC(C)=O)CS[C@H]12)c1csc(N)n1; assay: as §4

B1: Beta-lactamase (Pseudomonas aeruginosa), Q8RL90 (protein)
chain: MRDTRFPCLCGIAASTLLFATTPAIAGEAPADRLKALVDAAVQPVMKANDIPGLAVAISLKGEPHYFSYGLASKEDGRQVTPETLFEIGSVSKTFTATLAGYALAQDKMRLDDRASQHWPALQGSRFDGISLLDLATYTAGGLPLQFPDSVQKDQAQIRDYYRQWQPTYAPGSQRLYSNPSIGLFGYLAARSLGQPFERLMEQQVFPALGLEQTHLDVPEAALAQYAQGYGKDDRPLRVGPGPLDAEGYGVKTSAADLLRFVDANLHPERLDRPWAQALDATHRGYYKVGDMTQGLGWEAYDWPISLKRLQAGNSTPMALQPHRIARLPAPQALEGQRLLNKTGSTNGFGAYVAFVPGRDLGLVILANRNYPNAERVKIAYAILSGLEQQGKVPLKR
kcat/Km [1]: 6e+06 M⁻¹ s⁻¹ | kcat/Km [2]: 500000 M⁻¹ s⁻¹ | kcat/Km [3]: 860000 M⁻¹ s⁻¹ | kcat/Km [4]: 125000 M⁻¹ s⁻¹ | kcat/Km [5]: 20000 M⁻¹ s⁻¹ | Km [6]: 15 µM | kcat [6]: 0.1 s⁻¹ | Km [7]: 30 µM | kcat [7]: 0.015 s⁻¹ | Km [8]: 35 µM | kcat [8]: 30 s⁻¹ | Km [9]: 40 µM | kcat [9]: 5 s⁻¹ | Km [10]: 1700 µM | Km [11]: 5 µM | kcat [11]: 0.1 s⁻¹

B2: Beta-lactamase (Pseudomonas aeruginosa (strain ATCC 15692 / PAO1 / 1C / PRS 101 / LMG12228)), P24735 (protein)
chain: MRDTRFPCLCGIAASTLLFATTPAIAGEAPADRLKALVDAAVQPVMKANDIPGLAVAISLKGEPHYFSYGLASKEDGRRVTPETLFEIGSVSKTFTATLAGYALTQDKMRLDDRASQHWPALQGSRFDGISLLDLATYTAGGLPLQFPDSVQKDQAQIRDYYRQWQPTYAPGSQRLYSNPSIGLFGYLAARSLGQPFERLMEQQVFPALGLEQTHLDVPEAALAQYAQGYGKDDRPLRVGPGPLDAEGYGVKTSAADLLRFVDANLHPERLDRPWAQALDATHRGYYKVGDMTQGLGWEAYDWPISLKRLQAGNSTPMALQPHRIARLPAPQALEGQRLLNKTGSTNGFGAYVAFVPGRDLGLVILANRNYPNAERVKIAYAILSGLEQQGKVPLKR
Km [12]: 20 µM | kcat [12]: 0.01 s⁻¹ | kcat [13]: 0.004 s⁻¹ | Km [14]: 35 µM | Km [15]: 100 µM | kcat [15]: 2 s⁻¹ | Km [16]: 800 µM | kcat [16]: 0.08 s⁻¹ | Km [17]: 6 µM | kcat [17]: 0.02 s⁻¹ | kcat/Km [18]: 500000 M⁻¹ s⁻¹ | kcat/Km [19]: 200000 M⁻¹ s⁻¹ | kcat/Km [20]: 430000 M⁻¹ s⁻¹ | kcat/Km [21]: 50000 M⁻¹ s⁻¹ | kcat/Km [22]: 100000 M⁻¹ s⁻¹ | kcat/Km [23]: 3000 M⁻¹ s⁻¹
